Values quoted from earlier work, collected in patent US20230365625A1, “METHODS FOR TREATING AND/OR PREVENTING UNDESIRABLE SEQULAE OF NASAL TURBINOPLASTY OR FUNCTIONAL ENDOSCOPIC SINUS SURGERY” (3-D Matrix, Ltd., priority 2022, published 2023).
Entries after “also recorded” stand apart in the source; their conditions may differ. Like-named read-outs stand apart in the source and are kept apart here.

Assays:
[1] = RADA16 2.5%, IEIK13 1.3%, QLEL12 0.15% in water; result in words; cited from earlier work
[2] = cited from earlier work
[3] = 1% in water; cited from earlier work
[4] = system: punch hole injuries to the liver; conditions: pig, in vivo; cited from earlier work
[5] = cited from earlier work; remark: listed apart in the source
[6] = in solution before DMEM, RADA16 assumed 2.5% wt/vol, IEIK13 concentration unknown

| Substance | Effect of gamma-irradiation sterilization [1] | Storage modulus G′ ([2]; 1.5% in water) | Storage modulus G′ ([2]; 2.5% in water) [Pa] | Increase in storage modulus G′ after DMEM treatment relative to before [3] [fold] | Inflammatory cell infiltration due to the gel in the wound [4] | Storage modulus G′ ([2]; 1% in water) [Pa] | Storage modulus after DMEM treatment [3] [Pa] | Gel stiffness compared to RADA16 ([5]; exposed to physiological conditions, result in words) | Median loss modulus G″ [5, 6] [Pa] | Median storage modulus G′ [5, 6] [Pa] |
| --- | --- | --- | --- | --- | --- | --- | --- | --- | --- | --- |
| Ac-QLELQLELQLEL-NH2 [QLEL12, self-assembling peptide] | significant degradation and viscosity drop |  |  |  |  |  |  |  |  |  |
| KLDKLDKLDKLD [KLD12] |  | about 350 Pa | ~700 | 23.9 |  |  |  |  |  |  |
| Ac-IEIKIEIKIEIKI-NH2 [IEIK13] | enhanced the rheological properties |  |  | 7.4 | absence if inflammatory cell infiltration | ~700 | 5314 | forms a stiffer gel; also recorded: form a stiffer hydrogel matrix | 116 | 1145 |
